In article doi:10.1101/2022.07.20.500788:

T1: AtAGO10+Hs-loop D795A (Arabidopsis, UniProt Q9XGW1 1-712+Q9UKV8:602-608+721-988, D795A;internal_change)
T1 sequence: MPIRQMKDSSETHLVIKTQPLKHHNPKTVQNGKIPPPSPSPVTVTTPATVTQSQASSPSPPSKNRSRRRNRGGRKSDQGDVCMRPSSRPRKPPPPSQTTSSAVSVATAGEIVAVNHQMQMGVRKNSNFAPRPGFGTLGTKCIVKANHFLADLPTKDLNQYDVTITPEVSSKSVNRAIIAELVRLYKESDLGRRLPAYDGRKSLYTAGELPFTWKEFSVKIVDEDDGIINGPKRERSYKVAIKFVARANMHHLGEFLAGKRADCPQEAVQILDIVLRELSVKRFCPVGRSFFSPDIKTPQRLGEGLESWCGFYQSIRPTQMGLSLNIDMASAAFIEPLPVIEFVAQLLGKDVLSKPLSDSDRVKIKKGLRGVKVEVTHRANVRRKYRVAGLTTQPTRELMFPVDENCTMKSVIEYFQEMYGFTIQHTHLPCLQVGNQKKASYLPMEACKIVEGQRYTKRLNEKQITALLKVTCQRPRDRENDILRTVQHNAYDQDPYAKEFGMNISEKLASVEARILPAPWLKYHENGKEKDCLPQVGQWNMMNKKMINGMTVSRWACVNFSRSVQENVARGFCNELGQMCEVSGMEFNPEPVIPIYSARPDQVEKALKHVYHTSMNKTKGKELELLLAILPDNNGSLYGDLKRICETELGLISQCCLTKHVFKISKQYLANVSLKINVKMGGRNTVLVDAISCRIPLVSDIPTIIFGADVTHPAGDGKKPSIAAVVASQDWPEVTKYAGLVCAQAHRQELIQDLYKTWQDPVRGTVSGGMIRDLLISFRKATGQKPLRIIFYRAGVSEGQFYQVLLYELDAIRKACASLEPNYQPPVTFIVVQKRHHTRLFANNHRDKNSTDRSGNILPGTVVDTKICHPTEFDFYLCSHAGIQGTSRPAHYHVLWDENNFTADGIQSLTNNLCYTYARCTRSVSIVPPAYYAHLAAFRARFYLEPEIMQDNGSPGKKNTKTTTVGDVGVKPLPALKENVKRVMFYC

T2: AtAGO10 D795A (wild-type PIWI loop) (Arabidopsis, UniProt Q9XGW1 1-988, D795A)
T2 sequence: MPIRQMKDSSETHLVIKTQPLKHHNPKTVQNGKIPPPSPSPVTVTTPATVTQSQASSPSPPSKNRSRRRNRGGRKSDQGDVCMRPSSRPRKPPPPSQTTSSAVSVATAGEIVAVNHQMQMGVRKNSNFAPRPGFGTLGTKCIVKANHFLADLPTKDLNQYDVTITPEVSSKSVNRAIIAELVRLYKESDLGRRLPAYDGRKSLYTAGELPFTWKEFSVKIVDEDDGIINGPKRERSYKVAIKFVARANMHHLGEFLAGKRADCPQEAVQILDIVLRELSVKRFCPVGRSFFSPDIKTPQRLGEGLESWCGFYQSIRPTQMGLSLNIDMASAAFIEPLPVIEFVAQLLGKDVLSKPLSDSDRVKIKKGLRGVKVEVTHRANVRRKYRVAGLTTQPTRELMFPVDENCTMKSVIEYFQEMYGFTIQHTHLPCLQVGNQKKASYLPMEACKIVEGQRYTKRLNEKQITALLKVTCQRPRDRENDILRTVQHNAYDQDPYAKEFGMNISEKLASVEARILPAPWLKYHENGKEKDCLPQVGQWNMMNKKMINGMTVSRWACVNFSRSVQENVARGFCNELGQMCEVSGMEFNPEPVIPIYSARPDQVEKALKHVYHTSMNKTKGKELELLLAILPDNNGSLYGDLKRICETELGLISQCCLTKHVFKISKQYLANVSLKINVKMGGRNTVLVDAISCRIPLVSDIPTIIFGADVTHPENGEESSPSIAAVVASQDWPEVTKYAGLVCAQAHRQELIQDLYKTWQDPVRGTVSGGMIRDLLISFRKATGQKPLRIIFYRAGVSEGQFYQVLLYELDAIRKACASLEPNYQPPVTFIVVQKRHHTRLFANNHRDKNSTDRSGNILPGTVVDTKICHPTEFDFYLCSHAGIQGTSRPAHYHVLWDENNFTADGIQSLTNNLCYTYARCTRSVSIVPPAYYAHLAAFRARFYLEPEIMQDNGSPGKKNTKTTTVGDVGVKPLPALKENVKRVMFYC

B1: guide RNA / 2-21 target (mixed)
RNA 1: UGGAGUGUGACAAUGGUGUUU
RNA 2: AAACACCAUUGUCACACUCCAAA
B2: guide RNA / 2-8 target (mixed)
RNA 1: UGGAGUGUGACAAUGGUGUUU
RNA 2: AAAAAAAAAAAAAACACUCCAAA

Key:
Assay in all cases: filter binding
[1] = target: HsAGO2+At-loop (human, UniProt Q9UKV8 1-601+Q9XGW1:713-720+609-859, internal_change)
[2] = target: T1, AtAGO10+Hs-loop D795A
[3] = target: HsAGO2 (human, UniProt Q9UKV8 1-859)
[4] = target: T2, AtAGO10 D795A (wild-type PIWI loop)

Binder	Kd [1] [nM]	Kd [2] [nM]	Kd [3] [nM]	Kd [4] [nM]
B1	0.005 ± 0.001	0.095 ± 0.012	0.01 ± 0.001	0.04 ± 0.007
B2	6.43 ± 0.24	0.38 ± 0.03	0.086 ± 0.005	1.33 ± 0.14
